Results taken from US11685901B2, “Compositions and methods for organoid generation and disease modeling” (Salk Institute for Biological Studies, priority 2016, dated 2023).

B1: rhWNT5a: recombinant human Wnt5a protein (protein, UniProt P41221 62-380, looked up)
Protein Wnt-5a: IIGAQPLCSQLAGLSQGQKKLCHLYQDHMQYIGEGAKTGIKECQYQFRHRRWNCSTVDNTSVFGRVMQIGSRETAFTYAVSAAGVVNAMSRACREGELSTCGCSRAARPKDLPRDWLWGGCGDNIDYGYRFAKEFVDARERERIHAKGSYESARILMNLHNNEAGRRTVYNLADVACKCHGVSGSCSLKTCWLQLADFRKVGDALKEKYDSAAAMRLNSRGKLVQVNSRFNSPTTQDLVYIDPSPDYCVRNESTGSLGTQGRLCNKTSEGMDGCELMCCGRGYDQFKTVQTERCHCKFHWCCYVKCKKCTEIVDQFVCK
B2: rhWNT4: recombinant human (rh)Wnt4 protein (R&D Systems) (protein, UniProt P56705 23-351, looked up)
Protein Wnt-4: SNWLYLAKLSSVGSISEEETCEKLKGLIQRQVQMCKRNLEVMDSVRRGAQLAIEECQYQFRNRRWNCSTLDSLPVFGKVVTQGTREAAFVYAISSAGVAFAVTRACSSGELEKCGCDRTVHGVSPQGFQWSGCSDNIAYGVAFSQSFVDVRERSKGASSSRALMNLHNNEAGRKAILTHMRVECKCHGVSGSCEVKTCWRAVPPFRQVGHALKEKFDGATEVEPRRVGSSRALVPRNAQFKPHTDEDLVYLEPSPDFCEQDMRSGVLGTRGRTCNKTSKAIDGCELLCCGRGFHTAQVELAERCSCKFHWCCFVKCRQCQRLVELHTCR

How the values were obtained:
INS-1 cells = assay: Proinsulin-NanoLuc Gaussia luciferase insulin secretion assay in INS-1 cells; type: cell-based, rat; conditions: INS-1 stably expressing Proinsulin-NanoLuc; G20 mM + 100 nM Ex4; 20 mM KCl
Description: INS-1 cells were infected with the virus by spinfection (800 g, 1 hour at 37 degrees Celsius) and then changed to fresh INS-1 growth media. Seventy-two (72) hours after transfection, INS-1 cells were treated with 5 μg/ml Blasticidin (Invitrogen) for 7 days to select for Proinsulin-NanoLuc expressing cells. For insulin secretion assay, the cells (5×10^4-1×10^5 cells/well in 96 well) were pre-cultured in 3 mM glucose KRBB (100 μl/well). The cells were then incubated in KRBB (100 μl/well) with 3 mM and then sequentially incubated with 20 mM glucose with or without 100 nM Exendine-4 or 3 mM glucose with 20 mM KCl (100 μl/well). To determine Gaussia Luciferase activity as indicator of insulin secretion levels, 10 μl of samples are used for Luciferase assay using Pierce Gaussia Luciferase Flash Assay Kit (Prod #16159, Thermo Scientific).

[1] = tested on: human islet-like organoids; assay: hIAPP toxicity, propidium iodide staining of islet-like organoids; type: cell-based
From the text: FIG. 7 is a schematic showing modeling of human Type 2 diabetes in a dish. Generation of functional human organs such as a liver, pancreas, and islets provides new therapeutic strategies in drug-screening and modeling of human type 2 diabetes.
Generation of functional human organs according to methods described herein provides new strategies for drug-screening and disease modeling. Specifically, functional organoids can be used as models of type 2 diabetes for drug screening (FIG. 7).

[2] = tested on: human islet-like organoids; assay: Gaussia luciferase insulin secretion assay in human islet-like organoids; type: cell-based; conditions: 10 to 100 per assay
Description: Mouse islets, human islets and human islets like organoids were plated in their respective growth media with 10 μg/ml Polybrene® polymer (Santacruz). Viruses were then added. After overnight culture, cells were placed in fresh growth media. […] Then, insulin secretion assays were performed. […] The cells were then incubated in KRBB (100 μl/well) with 3 mM for 30 min and then sequentially incubated with 20 mM glucose with or without 100 nM Exendin-4 or 3 mM glucose with 20 mM KCl (100 μl/well). To determine Gaussia Luciferase activity as indicator of insulin secretion levels, 10 μl of samples are used for Luciferase assay using Pierce Gaussia Luciferase Flash Assay Kit (Prod #16159, Thermo Scientific).

[3] = tested on: hiPSC-derived islet organoids; assay: Fluorescence imaging and FACS analysis of hiPSC-derived islet organoids (Mitotracker, Insulin-GFP); type: cell-based, human; conditions: organoids day 27, 8 days treatment; for Insulin production (FACS): rhWNT4 100 ng/ml, rhWNT5a 400 ng/ml, conditioned media 50%, compared with PBS and control conditioned media
Description: FIGS. 12A-12H show a set of bar graphs and images illustrating the role of WNT proteins in the metabolic maturation of iPSC-derived islet organoids. […] FIG. 12B is a bar graph showing the induction of Esrrg gene expression in hiPSC-derived islet organoids, generated in the absence of supporting hADSC or HUVECs, in response to increasing doses of WNT4 (0, 10, 25, 50, 100, 200 ng/ml) and WNT5a (0, 25, 50, 100, 200, 400 ng/ml). FIG. 12C is a bar graph showing the induction of mitochondrial genes involved in oxidative phosphorylation (Cox7a2, Ndufa1, Ndufa7), lactate dehydrogenase (Ldha) and Fltp (a Wnt/planar cell polarity (PCP) effector and reporter gene) in hiPSC-derived islet organoids, generated in the absence of supporting hADSC or HUVECs, in response to increasing doses of WNT4 (0, 10, 25, 50, 100, 200 ng/ml) and WNT5a (0, 25, 50, 100, 200, 400 ng/ml). […] FIGS. 12F, 12G, and 12H show a set of bar graphs illustrating the results of FACS analyses of hiPSC-derived islet organoids (day 27) after 8 days treatment with PBS, WNT4 (100 ng/ml), WNT5a (400 ng/ml), control fibroblast conditioned media (50%), or WNT5a secreting fibroblast conditioned media (50%). The WNT proteins used were recombinant human (rh) proteins.
Human PSCs, including iPSC or ESC, were initially cultured in matrigel-coated plates (2 dimensional (2D) cultures. Cells were then treated with Accutase (Innovative Cell Technologies, Inc., San Diego, Calif.) to generate a single cell suspension, washed with PBS and centrifuged at 1000-1300 rpm for 5 minutes to pellet cells. Cells were resuspended with 3DKG Stem TeSR™ Base Medium (Stemcell Technologies, Cambridge, Mass.) with 10 μM Y-27632 (a RHO/ROCK pathway inhibitor compound) and cultured for an additional for 5 to 7 days until PSC sphere growth reached 50-100 μm diameter. Media was then replaced with differentiation media supplemented with 0.015% Kelcogel and 0.3% Methylcellulose. […]

[4] = tested on: hiPSC-derived islet organoids; assay: Gene expression (qPCR) in hiPSC-derived islet organoids treated with WNT proteins; type: cell-based, human; conditions: for ERRγ-mitochondrial metabolic pathway: FIGS. 12A-12H; for Esrrg gene expression / expression of mitochondrial genes involved in oxidative phosphorylation (Cox7a2, Ndufa1, Ndufa7), lactate dehydrogenase (Ldha) and Fltp: organoids generated in the absence of hADSC or HUVECs, increasing doses rhWNT4 0-200 ng/ml, rhWNT5a 0-400 ng/ml
Description: Human PSCs, including iPSC or ESC, were initially cultured in matrigel-coated plates (2 dimensional (2D) cultures. Cells were then treated with Accutase (Innovative Cell Technologies, Inc., San Diego, Calif.) to generate a single cell suspension, washed with PBS and centrifuged at 1000-1300 rpm for 5 minutes to pellet cells. Cells were resuspended with 3DKG Stem TeSR™ Base Medium (Stemcell Technologies, Cambridge, Mass.) with 10 μM Y-27632 (a RHO/ROCK pathway inhibitor compound) and cultured for an additional for 5 to 7 days until PSC sphere growth reached 50-100 μm diameter. Media was then replaced with differentiation media supplemented with 0.015% Kelcogel and 0.3% Methylcellulose. The culture medium was changed to differentiation medium ([…]) containing 100 ng/ml human Activin (R&D Systems), 25 ng/ml recombinant human Wnt3a (R&D Systems) or 3 μM CHIR99021, a glycogen synthase kinase GSK-3 inhibitor (Axon Medchem, Reston, Va.; or Selleckchem) for 1 day and then to differentiation medium (S1) containing 100 ng/ml human Activin for another 2 days (Stage 1, Pancreatic Endoderm). Subsequently, the medium was replaced with differentiation medium (S2) containing 50 ng/ml FGF7 (R&D Systems) for 2 days, and then with differentiation medium (S3) containing 50 ng/ml FGF7, 0.25 μM SANT-1 (Sigma), 1 μM Retinoic Acid (Sigma), 100 nM LDN193189 (an ALK2 and ALK3 inhibitor, Sigma) and 100 nM α-Amyloid Precursor Protein Modulator TPB for 3 days. Subsequently, this medium was replaced with differentiation medium (S4) containing 0.25 μM SANT-1, 50 nM Retinoic Acid, 10 μM Alk5 inhibitor II, 1 μM T3 for 3 days. Subsequently, the medium was replaced with differentiation medium (S5) containing 100 nM LDN193189, 100 nM Gamma Secretase inhibitor XX GSiXX (Millipore) 10 μM Alk5 inhibitor II, 1 μM T3 for 7 days. Subsequently, the medium was replaced with differentiation medium (S5) containing 10 uM Trolox (Calbiochem), 2 μM R428 (Selleckchem), 1 mM N-acetyl cysteine, 10 μM Alk5 inhibitor II, 1 μM T3 for an additional 7 to 20 days. After confirmation of the insulin gene expression by either reporter expression or qPCR (typically on day 20-30), the medium was changed to differentiation medium (S5) containing 10 μM Trolox (Calbiochem), 2 μM R428 (Selleckchem), 1 mM N-acetyl cysteine, 10 μM Alk5 inhibitor II, 1 μM T3 and 100 ng/ml recombinant human (rh)Wnt4 (R&D Systems), 400 ng/ml rhWnt5a, or 50% Wnt5a conditioned medium for 1-20 days. Wnt5a conditioned medium was prepared by culturing an L-Wnt5a cell line (ATCC, CRL-2814) in DMEM with 10% FBS, 1% Penicillin-streptomycin for 4 days after cells had reached 70-100% confluence in T175-T225 Frasko cell culture flasks.
Total RNA was extracted using TRIzol reagent (Invitrogen) and RNeasy KIT (Qiagen). Reverse transcription was performed with a SuperScript III First-Strand Synthesis System kit (Invitrogen) or PrimeScript RT reagent kit (TAKARA). Real time quantitative RT-PCR (qPCR) was performed using SYBR Green (Bio-Rad).
(FIG. 12A). […] In addition, mitochondrial genes involved in oxidative phosphorylation (Cox7a2, Ndufa1, Ndufa7), lactate dehydrogenase (Ldha) and Fltp (a Wnt/planar cell polarity (PCP) effector and reporter gene) were induced in hiPSC-derived islet organoids that were generated in the absence of supporting hADSC or HUVECs, in response to increasing doses of rhWNT4 (0, 10, 25, 50, 100, 200 ng/ml) and rhWNT5a (0, 25, 50, 100, 200, 400 ng/ml), (FIG. 12C). Mitochondrial (Mitotracker; Mito-Red) and insulin (Insulin-GFP) levels were increased in hiPSC-derived islet organoids (day 27) after 8 days treatment with PBS or WNT4 (100 ng/ml). (FIG. 12D). Human iPSC-derived islet organoids (day 27) were generated after 8 days treatment with PBS or WNT4 (100 ng/ml). (FIG. 12E). […]

[5] = tested on: hiPSC-derived islet organoids; assay: Insulin secretion assay (human c-peptide ELISA) of hiPSC-derived islet organoids; type: cell-based; conditions: organoids day 22, 100 ng/ml for 12 days, G3 mM, G20 mM, KCL20 mM, without hADSC and HUVECs
Description: Insulin release from intact islets was monitored using batch incubation methods (Yoshihara et al., 2010, Nat. Commun. 1:127). Briefly, overnight-cultured isolated pancreatic islets (RPMI-1640 supplemented with 10% (v/v) fetal bovine serum and 1% (v/v) Antibiotic-Antimycotic (Gibco)) were pre-cultured at 37° C. for 30 min (Krebs-Ringer bicarbonate buffer (KRBB) containing 129.4 mM NaCl, 3.7 mM KCl, 2.7 mM CaCl2, 1.3 mM KH2PO4, 1.3 mM MgSO4, 24.8 mM NaHCO3 (equilibrated with 5% CO2, 95% O2, pH7.4), 10 mM HEPES and 0.2% (v/v) BSA (fraction V, Sigma) (KRBH) with 3 mM glucose). Pancreatic islets were then incubated in KRBH buffer (500 μl/10 islets) with 3 mM or 20 mM glucose to determine insulin secretion levels. After 30 min, islets were pelleted by centrifugation and insulin levels determined by ELISA (Rat/mouse Insulin ELISA KIT (Millipore) and Human Insulin ELISA KIT (Millipore) for mouse and human islets, respectively). For human iPSC derived cells, the cells (1×10^6 cells/well in 24 well) were pre-cultured in 3 mM glucose KRBH buffer (500 μl/well). The cells were then incubated in KRBB (200 μl/well) with 3 mM or 20 mM glucose to determine c-peptide secretion levels as indicator of insulin secretion levels. After 30 min, the cells were pelleted by centrifugation and c-peptide levels were determined by human c-peptide ELISA KIT (Millipore).

expression of mitochondrial genes involved in oxidative phosphorylation (Cox7a2, Ndufa1, Ndufa7), lactate dehydrogenase (Ldha) and Fltp [4] | Molecule | Luciferase secretion (insulin secretion) (INS-1 cells) | stimulated insulin secretion of pooled organoids (secreted luciferase) [2] | Insulin production (FACS) [3] | ERRγ-mitochondrial metabolic pathway [4] | Esrrg gene expression [4] | further results
– | Exendin-4 | increased | – | – | – | – | –
– | hIAPP: human amyloid polypeptide, an inducer of β cell loss in type 2 diabetic patients (KCNTATCATQRLANFLVHSSNNFGAILSSTNVGSNTY; Islet amyloid polypeptide; UniProt P10997 34-70, looked up) | – | – | – | – | – | G0/G1 arrest ([1]; 24 hours): dose-dependently induced G0/G1 arrest; apoptosis (propidium iodide staining in G0/G1 stage cells) ([1]; increasing concentrations): induces apoptosis
– | [Cl-].[K+] [potassium chloride] | increased | robust | – | – | – | –
– | GLP-1: incretin | – | enhanced GSIS | – | – | – | –
induced | B1 | – | – | found | activate | induced | –
induced | B2 | – | – | found | activate | induced | Mitochondrial (Mitotracker; Mito-Red) and insulin (Insulin-GFP) levels ([3]; 100 ng/ml): increased; functional maturation based on secretion of human c-peptide ([5]; listed as Wnt4): sufficient to induce in vitro functional maturation; functional maturation based on secretion of human c-peptide ([5]; listed as rhWnt4): functional maturation
